This experiment has as its target T1, MBP-TNFR1^ECD deletion mutant ΔCRD1 (human, UniProt P19438 22-211).
T1 chain: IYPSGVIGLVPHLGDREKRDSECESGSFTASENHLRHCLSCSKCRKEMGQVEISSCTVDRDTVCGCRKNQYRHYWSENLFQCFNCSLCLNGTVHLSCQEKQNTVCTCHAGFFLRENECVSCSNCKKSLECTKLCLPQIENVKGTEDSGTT
Nature of the experiment: ITC. (ITC needs no label: the signal is the heat of the interaction.)

B1: Staphylococcal superantigen-like protein 10 (SSL10), residues 31-227, C-terminal 6xHis (natural protein)
chain: KQNQKSVNKHDKEALYRYYTGKTMEMKNISALKHGKNNLRFKFRGIKIQVLLPGNDKSKFQQRSYEGLDVFFVQEKRDKHDIFYTVGGVIQNNKTSGVVSAPILNISKEKGEDAFVKGYPYYIKKEKITLKELDYKLRKHLIEKYGLYKTISKDGRVKISLKDGSFYNLDLRSKLKFKYMGEVIESKQIKDIEVNLK
The molecule B1 registered a Kd of 11.1 µM.

One may read the Kd as the equilibrium constant for the complex coming apart. Low values mean higher affinity, high ones lower affinity.

The values above are taken from paper PMC9374677 (2022).
